Key:
[1] = tested on: EGFRwt-overexpressing human skin squamous cell carcinoma cell line A431; assay: MTS cytotoxicity (cell viability) assay, A431; type: cell-based; details: antibodies; 72 hours
Description: (§1) TDC cytotoxic activity was determined via the following experimental procedure: TDC was added to EGFR-overexpressing or […]-expressing human tumor cell culture medium, and cell viability was determined after 72 hours of cell culture. Cell-based in vitro experiments were used to determine cell viability, cytotoxicity and programmed cell death induced by TDC constituted by the present invention.
(§2) In vitro efficacy of antibody-toxin conjugates was determined via a cell proliferation assay. A CellTiter ^96® AqueousOne Solution Cell was Proliferation Assay purchased commercially from Promega Corp. (Madison, WI). CellTiter ^96® Aqueous One Solution Cell Proliferation Assay (a) is a colorimetric method used to detect the number of living cells in cell proliferation and cytotoxicity experiments. The above reagent contains the novel tetrazole compound [3-(4,5-dimethylthiazol-2-yl)-5-(3-carboxymethoxyphenyl)-2-(4-sulfophenyl)-2H-tetrazolium, inner salt; MTS) as well as an electronic coupling agent (phenazine ethosulfate; PES). […] This convenient “single solution” model is an improvement on the first generation of the CellTiter ^96® Aqueous Assay, in which the electronic coupling agent PMS was supplied separately from the MTS solution. MTS (Owen's reagent) is reduced by cellular organisms into a colored formazan product, which can be directly dissolved in culture medium (FIG. 1). This conversion is likely facilitated by NADPH NADH produced by dehydrogenase present in metabolically active cells. For the assay, a small amount of CellTiter ^96® Aqueous One Solution Reagent is added directly to the medium present in the wells of the culture plate, after which incubation is performed for 1 to 4 hours, followed by reading of the absorbance value at 490 nm using a microplate reader.
(§3) The amount of formazan product detected at 490 nm is proportional to the number of viable cells in culture. Because the formazan product of MTS is soluble in tissue culture medium, CellTiter ^96® Aqueous One Solution Assay requires fewer steps than the MTT or INT methods. A431 (EGFR-overexpressing cells) and U87-[…] (an […] mutant stable cell line) were used in the present invention as an investigative system for performing in vitro efficacy assays. In 96-well plates, cells were plated at 6000 cells/well and 24 hours later, antibody spiking was carried out. […] Cell viability was assayed via MTS 72 hours after treatment.

[2] = tested on: EFGRvIII-overexpressing human glioma cell line U87-EGFRvIII; assay: MTS cytotoxicity (cell viability) assay, U87-EGFRvIII; type: cell-based; details: antibodies; 72 hours; read-out: IC50, U87MG-EGFRvIII (MTS)
Description: as §1, §2, §3

[3] = target: T1, Recombinant EGFRVIII-His*6 antigen (Homo sapiens, UniProt P00533, DELINS30-297G); assay: ELISA relative affinity for EGFRvIII; type: binding; details: for EC50: EGFRvIII-coated plates, A450, read-out: EC50 (nM), mutant antibody affinity
T1 construct: His*6
From the text: Insertion Mutation Modification and Parent Antibody 2A1 for EGFRvIII • ELISA was used to compare the relative affinities of 2A1-LC-Cys110ins-mc-vc-PAB-MMAE TDC, 2A1-LC-Cys111ins-mc-vc-PAB-MMAE TDC, 2A1-LC-Cys142ins-mc-vc-PAB-MMAE TDC, 2A1-HC-Cys254ins-mc-vc-PAB-MMAE TDC, 2A1-HC-Cys255ins-mc-vc-PAB-MMAE TDC, 2A1-HC-Cys258ins-mc-vc-PAB-MMAE TDC, 2A1-HC-Cys259ins-mc-vc-PAB-MMAE TDC, 2A1-HC-Cys354ins-mc-vc-PAB-MMAE TDC, 2A1-HC-Cys355ins-mc-vc-PAB-MMAE TDC, 2A1-HC-Cys357ins-mc-vc-PAB-MMAE TDC, 2A1-HC-Cys378ins-mc-vc-PAB-MMAE TDC, 2A1-HC-Cys379ins-mc-vc-PAB-MMAE TDC, 2A1-HC-Cys386ins-mc-vc-PAB-MMAE TDC, 2A1-HC-Cys387ins-mc-vc-PAB-MMAE TDC, 2A1-HC-Cys410ins-mc-vc-PAB-MMAE TDC, and 2A1 for EGFRvIII. The specific process used was as follows:
Recombinant […]-His*6 antigen was used to coat plates; fish skin gelatin was used as a seal; dilution of each insertion mutant antibody was performed separately, up to a maximum concentration 10 μg/ml and a 4-fold gradient dilution was performed for a total of 11 concentrations; HRP-labeled secondary antibodies were used for incubation; TMB was used for development and absorption detection was performed at 450 nm.

Molecule | IC50 [1] [µM] | IC50 [2] [µM] | Affinity for EGFRvIII relative to 2A1 (in words) [3] | EC50 [3] [nM]
2A1-HC-Cys259ins: 2A1 antibody with cysteine inserted at heavy chain position 259 (SEQ ID NO: 28) (antibody) heavy: DVQLQESGPSLVKPSQSLSLTCTVTGYSITSDFAWNWIRQFPGNKLEWMGYISYSGNTRYNPSLKSRISITRDTSKNQFFLQLNSVTIEDTATYYCVTAGRGFPYWGQGTLVTVSAASTKGPSVFPLAPSSKSTSGGTAALGCLVKDYFPEPVTVSWNSGALTSGVHTFPAVLQSSGLYSLSSVVTVPSSSLGTQTYICNVNHKPSNTKVDKRVEPKSCDKTHTCPPCPAPEFLGGPSVFLFPPKPKDTLMISRTPEVTCVCVVDVSHEDPEVKFNWYVDGVEVHNAKTKPREEQYNSTYRVVSVLTVLHQDWLNGKEYKCKVSNKALPAPIEKTISKAKGQPREPQVYTLPPSRDELTKNQVSLTCLVKGFYPSDIAVEWESNGQPENNYKTTPPVLDSDGSFFLYSKLTVDKSRWQQGNVFSCSVMHEALHNHYTQKSLSLSPG light: DILMTQSPSSMSVSLGDTVSITCHSSQDINSNIGWLQQRPGKSFKGLIYHGTNLDDEVPSRFSGSGSGADYSLTISSLESEDFADYYCVQYAQFPWTFGGGTKLEIKRTVAAPSVFIFPPSDEQLKSGTASVVCLLNNFYPREAKVQWKVDNALQSGNSQESVTEQDSKDSTYSLSSTLTLSKADYEKHKVYACEVTHQGLSSPVTKSFNRGEC | > 10 | > 10 | maintained 2A1 affinity | 0.0431
2A1-HC-Cys354ins: 2A1 antibody with cysteine inserted at heavy chain position 354 (SEQ ID NO: 30) (antibody) heavy: DVQLQESGPSLVKPSQSLSLTCTVTGYSITSDFAWNWIRQFPGNKLEWMGYISYSGNTRYNPSLKSRISITRDTSKNQFFLQLNSVTIEDTATYYCVTAGRGFPYWGQGTLVTVSAASTKGPSVFPLAPSSKSTSGGTAALGCLVKDYFPEPVTVSWNSGALTSGVHTFPAVLQSSGLYSLSSVVTVPSSSLGTQTYICNVNHKPSNTKVDKRVEPKSCDKTHTCPPCPAPEFLGGPSVFLFPPKPKDTLMISRTPEVTCVVVDVSHEDPEVKFNWYVDGVEVHNAKTKPREEQYNSTYRVVSVLTVLHQDWLNGKEYKCKVSNKALPAPIEKTISKAKGQPREPQVYTLPPSRDECLTKNQVSLTCLVKGFYPSDIAVEWESNGQPENNYKTTPPVLDSDGSFFLYSKLTVDKSRWQQGNVFSCSVMHEALHNHYTQKSLSLSPG light: DILMTQSPSSMSVSLGDTVSITCHSSQDINSNIGWLQQRPGKSFKGLIYHGTNLDDEVPSRFSGSGSGADYSLTISSLESEDFADYYCVQYAQFPWTFGGGTKLEIKRTVAAPSVFIFPPSDEQLKSGTASVVCLLNNFYPREAKVQWKVDNALQSGNSQESVTEQDSKDSTYSLSSTLTLSKADYEKHKVYACEVTHQGLSSPVTKSFNRGEC | > 10 | > 10 | maintained 2A1 affinity | 0.0405
2A1-HC-Cys357ins: 2A1 antibody with cysteine inserted at heavy chain position 357 (SEQ ID NO: 34) (antibody) heavy: DVQLQESGPSLVKPSQSLSLTCTVTGYSITSDFAWNWIRQFPGNKLEWMGYISYSGNTRYNPSLKSRISITRDTSKNQFFLQLNSVTIEDTATYYCVTAGRGFPYWGQGTLVTVSAASTKGPSVFPLAPSSKSTSGGTAALGCLVKDYFPEPVTVSWNSGALTSGVHTFPAVLQSSGLYSLSSVVTVPSSSLGTQTYICNVNHKPSNTKVDKRVEPKSCDKTHTCPPCPAPEFLGGPSVFLFPPKPKDTLMISRTPEVTCVVVDVSHEDPEVKFNWYVDGVEVHNAKTKPREEQYNSTYRVVSVLTVLHQDWLNGKEYKCKVSNKALPAPIEKTISKAKGQPREPQVYTLPPSRDELTKCNQVSLTCLVKGFYPSDIAVEWESNGQPENNYKTTPPVLDSDGSFFLYSKLTVDKSRWQQGNVFSCSVMHEALHNHYTQKSLSLSPG light: DILMTQSPSSMSVSLGDTVSITCHSSQDINSNIGWLQQRPGKSFKGLIYHGTNLDDEVPSRFSGSGSGADYSLTISSLESEDFADYYCVQYAQFPWTFGGGTKLEIKRTVAAPSVFIFPPSDEQLKSGTASVVCLLNNFYPREAKVQWKVDNALQSGNSQESVTEQDSKDSTYSLSSTLTLSKADYEKHKVYACEVTHQGLSSPVTKSFNRGEC | > 10 | > 10 | – | 0.0403
2A1-HC-Cys378ins: 2A1 antibody with cysteine inserted at heavy chain position 378 (SEQ ID NO: 36) (antibody) heavy: DVQLQESGPSLVKPSQSLSLTCTVTGYSITSDFAWNWIRQFPGNKLEWMGYISYSGNTRYNPSLKSRISITRDTSKNQFFLQLNSVTIEDTATYYCVTAGRGFPYWGQGTLVTVSAASTKGPSVFPLAPSSKSTSGGTAALGCLVKDYFPEPVTVSWNSGALTSGVHTFPAVLQSSGLYSLSSVVTVPSSSLGTQTYICNVNHKPSNTKVDKRVEPKSCDKTHTCPPCPAPEFLGGPSVFLFPPKPKDTLMISRTPEVTCVVVDVSHEDPEVKFNWYVDGVEVHNAKTKPREEQYNSTYRVVSVLTVLHQDWLNGKEYKCKVSNKALPAPIEKTISKAKGQPREPQVYTLPPSRDELTKNQVSLTCLVKGFYPSDIAVEWCESNGQPENNYKTTPPVLDSDGSFFLYSKLTVDKSRWQQGNVFSCSVMHEALHNHYTQKSLSLSPG light: DILMTQSPSSMSVSLGDTVSITCHSSQDINSNIGWLQQRPGKSFKGLIYHGTNLDDEVPSRFSGSGSGADYSLTISSLESEDFADYYCVQYAQFPWTFGGGTKLEIKRTVAAPSVFIFPPSDEQLKSGTASVVCLLNNFYPREAKVQWKVDNALQSGNSQESVTEQDSKDSTYSLSSTLTLSKADYEKHKVYACEVTHQGLSSPVTKSFNRGEC | > 10 | > 10 | – | 0.0404
2A1-HC-Cys355ins: 2A1 antibody with cysteine inserted at heavy chain position 355 (SEQ ID NO: 32) (antibody) heavy: DVQLQESGPSLVKPSQSLSLTCTVTGYSITSDFAWNWIRQFPGNKLEWMGYISYSGNTRYNPSLKSRISITRDTSKNQFFLQLNSVTIEDTATYYCVTAGRGFPYWGQGTLVTVSAASTKGPSVFPLAPSSKSTSGGTAALGCLVKDYFPEPVTVSWNSGALTSGVHTFPAVLQSSGLYSLSSVVTVPSSSLGTQTYICNVNHKPSNTKVDKRVEPKSCDKTHTCPPCPAPEFLGGPSVFLFPPKPKDTLMISRTPEVTCVVVDVSHEDPEVKFNWYVDGVEVHNAKTKPREEQYNSTYRVVSVLTVLHQDWLNGKEYKCKVSNKALPAPIEKTISKAKGQPREPQVYTLPPSRDELCTKNQVSLTCLVKGFYPSDIAVEWESNGQPENNYKTTPPVLDSDGSFFLYSKLTVDKSRWQQGNVFSCSVMHEALHNHYTQKSLSLSPG light: DILMTQSPSSMSVSLGDTVSITCHSSQDINSNIGWLQQRPGKSFKGLIYHGTNLDDEVPSRFSGSGSGADYSLTISSLESEDFADYYCVQYAQFPWTFGGGTKLEIKRTVAAPSVFIFPPSDEQLKSGTASVVCLLNNFYPREAKVQWKVDNALQSGNSQESVTEQDSKDSTYSLSSTLTLSKADYEKHKVYACEVTHQGLSSPVTKSFNRGEC | > 10 | > 10 | maintained 2A1 affinity | 0.0415

Source: patent US12678474B2, “Screening of fixed-point coupling sites of cysteine-modified antibody-toxin conjugate (TDC)” (SICHUAN BAILI PHARMACEUTICAL CO. LTD., priority 2017, dated 2026)
